Here are results for nine molecules from patent US20150266963A1 (ARGEN X B V, published 2015).

Read-outs that look alike come from different tables or passages of the source.

Test [1] addresses T1, recombinant human CD70 (Flag-TNC-CD70) (human, UniProt P32970 39-193).
T1 construct: extracellular domain; Captured by anti-Flag mAb in ELISA; as 'recombinant human CD70' immobilised on Biacore CM5 chips; TNC is for trimerisation; also called recombinant CD70; human recombinant CD70; not shown: Flag tag and TNC trimerisation domain
T1 sequence (looked up): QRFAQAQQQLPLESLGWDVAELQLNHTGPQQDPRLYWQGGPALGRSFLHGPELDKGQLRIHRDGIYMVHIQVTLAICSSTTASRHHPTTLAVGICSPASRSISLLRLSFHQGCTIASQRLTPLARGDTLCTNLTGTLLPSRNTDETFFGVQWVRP
As to the kind of experiment: inhibition ELISA; Flag-TNC-CD70 captured by anti-Flag mAb; competitor CD27-Fc. Here is the method:
(§1) From selected phage transfected into TG1, individual colonies were picked randomly for growth in 96 well plates. After IPTG induction according to standard protocols periplasmic fractions (penis) containing Fabs were prepared. […] In this assay, Flag-TNC-CD70 is captured by an anti-Flag mAb and binding of CD27-Fc is detected via a biotinylated anti-CD27 mAb and strep-HRP in the absence or presence of CD70 Fabs (FIGS. 2 and 3) or CD70 mAbs (FIG. 4). In FIG. 2B it can be seen that 27B3, which has an identical VH as 9D1, but contains a somewhat different light chain, seems to block binding of CD27 to CD70 more efficiently, which was in line with the better off rate of this Fab as measured on Biacore (data not shown). Table 3 indicates the blocking potency (expressed as IC50) for the various llama-human chimeric mAbs tested in the CD70 inhibition ELISA. […] FIG. 3 is a composite of an experiment testing llama CD70 Fabs for blocking activity (in the inhibition ELISA, see white bars) and for CD70 binding (binding ELISA, black bars). For the binding ELISA, Flag-TNC-CD70 is captured by an anti-Flag mAb and binding of the Fabs is detected using an anti-myc-HRP mAb, which recognizes the MYC tag fused to the C-terminus of the Fd fragment. For comparison purposes, known monoclonal antibodies to CD70 (SGN70 described in US 2010/0129362 A1, clone 1F6; and MDX69A7 described in WO2008/074004 FIGS. 5A and 5B) were tested in parallel. […] Of interest is clone 59D10, which as Fab has no blocking activity, but when converted into a chimeric IgG was antagonistic (see Table 3). Amino acid sequences of the VH and VL domains of binding and blocking llama-derived Fab clones are shown elsewhere herein (Tables 6-9).

Test [2] concerns the target T2, human CD70 expressed on the surface of cells (human, UniProt P32970 1-193).
T2 sequence (looked up): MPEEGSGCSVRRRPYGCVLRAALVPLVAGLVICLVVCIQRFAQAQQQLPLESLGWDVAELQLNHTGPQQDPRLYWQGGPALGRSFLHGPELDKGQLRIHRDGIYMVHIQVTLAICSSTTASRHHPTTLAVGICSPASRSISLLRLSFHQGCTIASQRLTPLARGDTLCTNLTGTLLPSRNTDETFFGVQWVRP
As to the kind of experiment: cell-based or functional assay.

Test [3] has as its target T2, human CD70 expressed on the surface of …. The experiment in a line: flow cytometry on MHH-PREB-1 cells; anti-human IgG-FITC. How it is done: In a further experiment, NHL-derived MHH-PREB-1 cells (1W cells) were incubated with a concentration gradient of chimeric llama-human CD70 inhibiting mAbs (20 μg/ml-0.25 ng/ml) and binding of the mAbs to the cells was detected using anti-human IgG-FITC antibody.

Test [4] has the same target. The experiment in a line: flow cytometry on 786-O cells, anti-human Fc-FITC. How it is done: Fluorescence of 10,000 cells/condition was measured using a flow cytometer and the median fluorescence was plotted.
For test [5] the target is unchanged. The experiment in a line: cell-based or functional assay. This is another data set of the same source.
Test [6] addresses T3, heat denatured recombinant CD70 (human, UniProt P32970 52-193, limits assumed).
T3 construct: Same recombinant CD70 as m1, denatured by heating for 5 minutes at 95 C and cooling on ice, coated directly on the plate; also called denatured CD70; not shown: Flag tag (anti-Flag mAb was the coating control) and further fusion parts
T3 sequence (looked up): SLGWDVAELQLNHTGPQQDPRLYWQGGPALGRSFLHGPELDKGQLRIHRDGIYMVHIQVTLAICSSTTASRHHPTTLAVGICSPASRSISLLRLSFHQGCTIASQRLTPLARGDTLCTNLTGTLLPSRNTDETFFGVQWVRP
As to the kind of experiment: ELISA on coated heat denatured recombinant CD70, anti-human IgG-HRP. Here is the method:
The binding of CD70 mAbs to denatured recombinant CD70 was assessed by ELISA. Recombinant CD70 was denatured by heating for 5 minutes at 95° C., followed by immediate cooling on ice for 5 minutes. A microtiter plate was coated with 5 μg/ml CD70 with or without denaturation. The plate was blocked and the CD70 mAbs for testing were applied at 10 μg/ml. After washing, binding of the mAbs was detected using anti-human IgG-HRP. As a positive control for the coating, instead of using the CD70 mAbs, an anti-Flag mouse-derived mAb was applied and detection was with anti-mouse-HRP. TMB was used as a substrate and OD at 620 nm was measured. […] Amongst the other mAbs, some are also binding to denatured CD70 (fe 5F4, 9G2, 57B6).

Test [7] concerns the target T1, recombinant human CD70 (Flag-TNC-CD70). As to the kind of experiment: inhibition ELISA; Flag-TNC-CD70 captured by anti-Flag mAb; competitor CD27-Fc. How it is done:
as §1
This is another data set of the same source.

The target is the same in test [8]. The experiment in a line: Biacore; recombinant human CD70 on CM5 chip; Fab injected. In short, it runs like this: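 Recombinant human CD70 amine-coupled to CM5 chip (~1000 RU). Trypsin-derived Fabs diluted 6-fold in HEPES-buffered saline with P20 injected at 30 μl/min; dissociation followed 10 minutes, surfaces regenerated with 10 mM NaOH; off-rates fitted after blank subtraction. CD27 off-rate from CD70 measured likewise.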

The target is the same in test [9]. As to the kind of experiment: Biacore; CD70 coated CM5 chip; Fab in periplasmic fraction. How it is done: Phage eluted from rounds 3, 4 and 5 of selection were transfected into TG1 and plated clonally; individual clones were picked randomly for further analysis. Periplasmic fractions containing Fabs were prepared from IPTG induced small scale cultures the off rate of each Fab was determined using a CD70 coated CM5 chip in a Biacore binding assay. Clones with Fab having off rates similar to that of 27B3 were sequenced.

B1: 59D10 chimeric llama-human mAb (antibody, human IgG1, V domains shown)
VH: EVQLVESGGGLVQPGGSLRLSCAASELSFSISEMTWVRQAPGKGLEWVSGISGVTGGSSTSYADSVKGRFTISRDNDKNTLYLQMNSLIPEDTAVYYCATTSGTYYFIPEYEYWGQGTQVTVSS
VL: QSVLTQPPSVSGSPGKTVTISCAGTSSDVGYGYYVSWYQQFPGMAPKLLIYDVNKRASGIADRFSGSKAGNTASLTISGLQSEDEADYYCASYRSSANAVFGGGTHLTVLG
Turning to B1, the IC50 in test [1] turned out to be 0.107 µg/mL. In [2], the “IC50 (ng/ml), IL-8 secretion in Raji / HT1080-CD27 co-culture assay” value stood at 10 ng/mL. Also, in [3], it took 0.074 µg/mL to reach a half-maximal effect (EC50).

B2: 9G2 chimeric llama-human mAb (antibody, human IgG1, V domains shown)
VH: QVQLVESGGGLMQPGGSLRLSCAASGFTFSSSAMSWVRQAPGKGLEWVSSIYSDSSYTYYADSVKSRFTISTDNAKNTLYLQMNSLKPDDTAVYYCAGSSDYEGSFASWGQGTQVTVSS
VL: QSVVTQPPSLSASPGSSVRLTCTLSSGNSVGNYDISWYQQKAGSPPRYLLYYYSDSVKHQGSGVPSRFSGSSDASANAGLLLISGLQPEDEADYYCSAYKSGSHVFGGGTKLTVLG
With B2, the “EC50 (read off the curve)” value in test [4] was about 100 ng/mL. The IC50 in [1] is 0.04 µg/mL. Moreover, the “IC50 (ng/ml), IL-8 secretion in Raji / HT1080-CD27 co-culture assay” value in test [2] is 3 ng/mL. The “IC50, IL-8 secretion in Raji / HT1080-CD27 co-culture assay” value in test [5] was found to be 20 pM.

B3: 5F4 chimeric llama-human mAb (antibody, human IgG1, V domains shown)
VH: EVQVQESGGGLVHPGGSLKLSCAASGFTFDTYAMSWVRQAPGKGLEWVSAISWSGGETFYAESMKGRFTISRNNAKNTLYLQMNSLKSEDTAVYYCARGMGLAEGLTDWGQGTQVTVSS
VL: QAVVTHPPSLSASPGSSVRLTCTLISGDNIGGYDISWYQQKTGSPPRYLLYYYSDSYKHQSSGVPSRFSGSKDASANAGLLLISGLQSEDEADYYCSAYKSGSYKAPVFGGGTHLTVLG
In the case of B3, the “EC50 (read off the curve)” value in test [4] was about 200 ng/mL. For the same molecule, the IC50 in test [1] stood at 0.296 µg/mL. Besides, in test [2], the “IC50 (ng/ml), IL-8 secretion in Raji / HT1080-CD27 co-culture assay” value turned out to be 32 ng/mL.

B4: 19G10 chimeric llama-human mAb (antibody, human IgG1, V domains shown)
VH: EVQLQESGGGVVQPGGSLRLSCAASGFTFDDYAMSWVRQAPGKGLEWVSSIYMYDSSTYYADSVKGRFTISTDNAKNTVYLQMNSLKSEDTAVYYCAKDINRSYGSSWSHFGPIFSSWGQGTQVTVSS
VL: NFMLTQPSAVSVSLGQTARITCQGGYYTHWYQQKPGQAPVLVIYVNNNRPSGIPERFSGSSSGNTATLTISGAQAEDEAAYYCQSGSSSTIPVFGGGTKLTVLG
In the case of B4, the binding result in test [6] is on record as “no binding (tested: 10 µg/ml (text))”. Also, in test [1], the IC50 was found to be 0.075 µg/mL. Besides, the “IC50 (ng/ml), IL-8 secretion in Raji / HT1080-CD27 co-culture assay” value in [2] came out at 16 ng/mL.

B5: 9E1 chimeric llama-human mAb (antibody, human IgG1, V domains shown)
VH: B4 VH
VL: QAVVTQEPSLSVSPGGTVTLTCGLTSGSVTSSNYPDWYQQTPGQAPRLLIYNTNSRHSGVPSRFSGSISGNKAALTITGAQPEDEADYYCNLYMGSGGSKVFGGGTKLTVLG
As to B5, the binding result in test [6] is given as “no binding (tested: 10 µg/ml (text))”. For the same molecule, in test [1], the IC50 is 1.4 µg/mL. Further, the “IC50 (ng/ml), IL-8 secretion in Raji / HT1080-CD27 co-culture assay” value in test [2] was 517 ng/mL.

B6: 9D1 chimeric llama-human mAb (antibody, human IgG1, V domains shown)
VH: EVQLVESGGGLVQPGGSLRLSCAASGFTFSVYYMNWVRQAPGKGLEWVSDINNEGGTTYYADSVKGRFTISRDNAKNTLTLQMNSLKPEDTALYYCVRDAGYSNHVPIFDSWGQGTQVIVAS
VL: QAVVTQEPSLSVSPGGTVTLTCGLSSGSVTSSHYPGWYQQTPGQAPRLLIFNTNSRHSGVPSRFSGSISGNKAALTITGAQPEDEADYYCALLNIDDGSTMFGGGTHLTVLG
notes: also called mAb 9D1
Turning to B6, the “EC50 (read off the curve)” value in test [4] was about 30 ng/mL. The IC50 was 0.109 µg/mL in [1] and 0.73 nM in test [7]. For the same molecule, the “IC50 (ng/ml), IL-8 secretion in Raji / HT1080-CD27 co-culture assay” value in test [2] is 29 ng/mL.

B7: 27B3 Fab (Fab, V domains shown)
VH: B6 VH
VL: QAVVTQEPSLTVSPGGTVTLTCGLKSGSVTSTNFPTWYQQTPGQAPRLLIYNTNTRHSGVPSRFSGSISENKAALTITGAQPEDEAEYFCALFISNPSVEFGGGTQLTVLS
notes: Llama-derived Fab; also called Fab 27B3
In the case of B7, the dissociation rate constant (koff) in test [8] came out at 8e-05 s⁻¹; in test [9] it was 0.00014 s⁻¹. For the same molecule, the IC50 in test [7] is about 0.4 nM.

B8: 6D5 (antibody, V domains shown)
VH: EVQLVQPGAELRKPGASVKVSCKASGYTFTSYYIDWVRQAPGQGLEWMGRIDPEDGGTKYAQKFQGRVTFTADASTSTAYVELSSLRSEDTAVYYCASRRRDFDYWGQGTQVTVSS
VL: QSALTQPSAVSVSLGQTARITCQGGNARFSSFAWYQQKPGQAPVQVIYYNTNRPSGIPARFSGSSSGGAATLTISGAQAEDEADYYCQSYESGNYVFGGGTTLTVLG
notes: the mAb format of 6D5 is not described in the text; also called 6D5 mAb
Take B8: the binding result in test [6] was “no binding (tested: 10 µg/ml (text))”.

B9: 4D2 chimeric llama-human mAb (antibody, human IgG1, V domains shown)
VH: QVQLQESGPGLVKPSQTLSLACTVSGGSITTSYYYWSWIRQPPGKGLEWMGAIGSRGSTYYSPSLKTRTSISRDTSKNQFTLQLSSVTPEDTAVYYCARVTGEITYNSGSYYYTLNLFDYWGQGTQVTVSS
VL: QSVLTQPPSLSASPGSSVRLTCTLSSGNSVGNYDISWYQQKAGSPPRYLLYYYSDSYKNQGSGVPSRFSGSKDPSANAGLLLISGLQAEDEADYYCSVSNSGTYKPVFGGGSKLTVLG
Take B9: the concentration giving a half-maximal response (EC50 (read off the curve)) in test [4] is about 60 ng/mL. The IC50 in test [1] amounted to 0.254 µg/mL. Also, the “IC50 (ng/ml), IL-8 secretion in Raji / HT1080-CD27 co-culture assay” value in test [2] was 54 ng/mL.
